Molecular target: T1, His-PLEKHM1 (1–300) (UniProt Q9Y4G2 1-300)
T1 construct: PLEKHM1, residues 1–300; also called His-tagged PLEKHM1 (1–300); source: purified
Assay: pull-down; competition: GST-Arl8b as bait incubated with His-PLEKHM1 (1–300) and increasing concentrations of MBP-SKIP (1–300); immunoblot
Details: both partners purified

binding result: binds
B1: GST-Arl8b (natural protein, UniProt Q9NVJ2 1-186, looked up)
chain: MLALISRLLDWFRSLFWKEEMELTLVGLQYSGKTTFVNVIASGQFSEDMIPTVGFNMRKVTKGNVTIKIWDIGGQPRFRSMWERYCRGVNAIVYMIDAADREKIEASRNELHNLLDKPQLQGIPVLVLGNKRDLPNALDEKQLIEKMNLSAIQDREICCYSISCKEKDNIDITLQWLIQHSKSRRS
notes: Arl8b small GTPase; source: E. coli BL21, purified on glutathione resin
